Series [1] deals with T1, PTH receptor 1 (Mus musculus, UniProt P41593).
T1 construct: host or cells: MC3T3-E1 subclone 4
T1 sequence (P41593 27-591): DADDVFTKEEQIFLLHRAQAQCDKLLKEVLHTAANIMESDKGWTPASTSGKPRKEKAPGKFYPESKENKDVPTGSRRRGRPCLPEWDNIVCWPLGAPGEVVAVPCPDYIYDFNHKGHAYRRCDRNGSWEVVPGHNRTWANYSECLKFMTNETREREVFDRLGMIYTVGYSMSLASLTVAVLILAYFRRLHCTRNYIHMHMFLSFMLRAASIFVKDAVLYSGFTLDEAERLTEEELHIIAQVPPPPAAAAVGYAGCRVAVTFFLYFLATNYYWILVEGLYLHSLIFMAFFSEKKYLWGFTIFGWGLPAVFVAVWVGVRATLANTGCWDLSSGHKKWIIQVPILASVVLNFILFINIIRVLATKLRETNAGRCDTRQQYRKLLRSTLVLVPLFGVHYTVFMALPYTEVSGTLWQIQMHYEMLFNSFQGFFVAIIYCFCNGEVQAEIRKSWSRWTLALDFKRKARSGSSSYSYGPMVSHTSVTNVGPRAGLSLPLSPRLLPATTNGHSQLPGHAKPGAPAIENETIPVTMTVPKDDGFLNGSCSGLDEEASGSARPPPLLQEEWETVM
The series can be described thus: MC3T3-E1 cAMP efficacy assay. The class given is cell-based, murine. To be noted: MC3T3-E1 cells; for Emax ± SEM [pmol/well]: maximally inducible cAMP. How it is done:
MC3T3-E1 cells were seeded at 10,000 cells/well in 96-microtiter plates and grown overnight before the efficacy assays. On the day of analysis the growth medium was carefully removed by suction. Cells were washed once with 200 μl TB/0.1% […]. The buffer was replaced with 100 μl reaction mixture (±test peptide, +100 μM IBMX) and incubated at 37° C. for 13 min. The reaction was stopped by addition of 25 μl of ice-cold 0.5 M HCl. Cells were in the following incubated on ice for 60 min. 75 μl acetate-buffer were added to each well in a 96-well cAMP FlashPlate. […] FlashPlates were incubated overnight at 4° C., emptied by suction and counted in a TopCounter.
Determinations were performed in triplicates at all doses. Standards were included as single determinations, duplicates or triplicates in each experiment, preferentially on each plate.
Efficacy was evaluated in the concentration range from […].
Concentration-dependent cAMP responses were imported into GraphPad Prism vers. 4, transformed and plotted. Curves were fitted with a function for sigmoidal dose response curve non-linear fit Y=Bottom+(Top-Bottom)/(1+10̂((LogEC50-X))) where X is the logarithm of concentration and Y is the response. Y starts at Bottom and goes to Top with a sigmoid shape. pEC50 and the maximally inducible concentration of cAMP were evaluated. Overall statistical differences were analyzed using one-way ANOVA. Post-hoc comparisons were made by the use of Fisher's Least Significance Test. Results were considered significant, when p was lower than 0.05.

The target in series [2] is T2, Saos-2 PTH1R (Homo sapiens, UniProt Q03431).
T2 construct: endogenous in cells; host or cells: Saos-2
T2 sequence (Q03431 27-593): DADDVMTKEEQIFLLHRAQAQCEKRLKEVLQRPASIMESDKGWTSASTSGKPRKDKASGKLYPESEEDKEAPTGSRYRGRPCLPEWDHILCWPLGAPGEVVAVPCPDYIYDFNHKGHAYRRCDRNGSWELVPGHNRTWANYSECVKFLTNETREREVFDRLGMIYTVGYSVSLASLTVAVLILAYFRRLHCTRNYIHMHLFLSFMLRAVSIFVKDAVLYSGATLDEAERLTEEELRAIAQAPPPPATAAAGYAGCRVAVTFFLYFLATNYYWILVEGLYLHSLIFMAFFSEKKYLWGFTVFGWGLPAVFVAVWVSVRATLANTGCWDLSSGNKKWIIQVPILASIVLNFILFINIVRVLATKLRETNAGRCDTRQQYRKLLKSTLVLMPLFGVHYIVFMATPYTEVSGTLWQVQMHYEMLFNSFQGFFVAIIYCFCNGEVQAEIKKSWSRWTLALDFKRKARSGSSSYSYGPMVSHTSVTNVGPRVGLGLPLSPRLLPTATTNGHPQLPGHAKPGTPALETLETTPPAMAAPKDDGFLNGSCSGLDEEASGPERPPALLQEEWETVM
The series can be described thus: cAMP-efficacy assay in Saos-2 cells. It counts as cell-based. To be noted: cAMP. In outline: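 Saos-2 cells, grown two days after seeding at 50,000 cells/well, were exposed to peptide for 15 min at 37 °C in Tyrode's buffer with 0.1% BSA and 100 μM IBMX. After stopping with cold HCl, cAMP was measured by radioimmunoassay FlashPlate. EC50, pEC50, Hill slope and Emax came from a four-parameter sigmoidal fit.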

The target in series [3] is T3, CYP2D6 (Homo sapiens, UniProt P10635). The series can be described thus: CYP2D6 inhibition in pooled human liver microsomes. The class given is in vitro ADME. Further details: Pooled human liver microsomes (HLM, final concentration 0.05 mg protein/mL); tissue BD Biosciences 452161; host or cells: pooled human liver microsomes. To be noted: 10 μM compound, dextrorphan formation rate. How it is done:
Stock solutions of the test compounds (1 mM) were prepared in 50% isopropanol or 20% DMSO. Pooled human liver microsomes (HLM, final concentration 0.05 mg protein/mL) were mixed with phosphate buffer (0.1 M potassium phosphate, pH 7.4), CYP2D6 substrate (dextrometrorphan, 5 μM final concentration) and test compound (10 μM), quinidine (0.5 μM) or vehicle (0.2% DMSO or 0.5% isopropanol). The mixture was preincubated for 5 min at 37° C. prior to initiation of the reaction addition of a NADPH regenerating mixture (Final concentration: 1.25 mM NADP^+, 3.3 mM Glucose-6-phosphate, 3.3 mM MgCL2 and 0.4 U/mL glucose-6-phosphat dehydrogenase). After 5 minutes the reaction was stopped by addition of 0.25 volume stop reagent (94% acetonitrile, 6% acetic acid). Each experiment was performed in duplicate or triplicate.
The quantification of CYP2D6 product (dextrorphan) was performed by LC/MS/MS. After centrifugation for 5 min at 10.000 g, 40 μL of the supernatant was injected onto a C8 RP-HPLC column (XterraMS, C8, […], 50×2.1 mm). Dextrorphan was eluted by a linear gradient from 0 to 90% acetonitrile in 0.1% formic acid over 4 min using a flow rate of 0.15 ml/min. The concentration of dextrorphan in the reaction mixture was estimated from the peak area of the MS/MS transition (m/z 258.1>199) using an external calibration curve (Table 8).
The CYP2D6 activity in HLM was calculated as the metabolite formation rate: […]
Where, v is the formation rate, [metabolite] is the detected concentration of dextrorphan (pmol/mL) at the time (t, min) and [protein] is the protein concentration (mg/mL) in the reaction mixture. The influence of the test compounds on the CYP2D6 activity was calculated as % of the activity measured when incubated with the vehicle. The effect of CYP2D6 inhibitor (quinidine) was included as inhibition control within each batch analysis. A reduction in CYP2D6 activity to less than 70% of the vehicle control was considered significant.

Series [4] has as its target T3, CYP2D6. The series is described as follows: cell-based or functional assay.
Series [5] has as its target PTH receptor 1 on MC3T3-E1 cells (murine) (UniProt P41593). The series can be described thus: cell-based or functional assay.
Series [6] has as its target Saos-2 PTH1R (UniProt Q03431). The series can be described thus: cell-based or functional assay.

“Also recorded” adds a separate entry of the source. Bridge positions count the residues as written; N and C are the ends. Square brackets hold non-standard residues; d marks the D form. Peptide text beside a SMILES is read from it. hArg = N=C(N)NCCCC[C@H](N)C(=O)O; Ac5c = NC1(C(=O)O)CCCC1; Aib = CC(C)(N)C(=O)O

T3 sequence (P10635 whole entry): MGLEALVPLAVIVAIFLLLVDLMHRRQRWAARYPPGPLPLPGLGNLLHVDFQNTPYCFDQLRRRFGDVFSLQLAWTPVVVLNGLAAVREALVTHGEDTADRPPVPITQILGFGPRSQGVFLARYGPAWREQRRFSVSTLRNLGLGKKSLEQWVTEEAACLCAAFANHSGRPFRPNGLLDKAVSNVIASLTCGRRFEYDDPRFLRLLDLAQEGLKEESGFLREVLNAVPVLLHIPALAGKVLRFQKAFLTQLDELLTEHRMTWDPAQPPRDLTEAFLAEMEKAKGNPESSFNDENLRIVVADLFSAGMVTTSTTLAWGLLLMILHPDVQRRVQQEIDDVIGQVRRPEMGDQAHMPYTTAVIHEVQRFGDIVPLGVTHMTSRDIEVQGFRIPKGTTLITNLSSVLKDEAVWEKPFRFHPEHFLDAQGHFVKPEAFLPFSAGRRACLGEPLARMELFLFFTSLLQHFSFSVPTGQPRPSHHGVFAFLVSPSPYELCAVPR

In the case of `CC[C@H](C)[C@H](NC(=O)[C@H](CCC(=O)O)NC(=O)C(C)(C)NC(=O)[C@@H](NC(=O)C1(N)CCCC1)C(C)C)C(=O)N[C@@H](CCC(N)=O)C(=O)N[C@@H](CC(C)C)C(=O)N[C@@H](CCSC)C(=O)N[C@@H](Cc1c[nH]cn1)C(=O)N[C@@H](CCC(N)=O)C(=O)N[C@@H](CCCCNC(=N)N)C(=O)N[C@@H](C)C(=O)N[C@H]1CCCCNC(=O)C[C@@H](C(N)=O)NC(=O)[C@H](CC(N)=O)NC(=O)[C@H](CC(C)C)NC(=O)[C@H](Cc2c[nH]c3ccccc23)NC1=O` [SEQ ID NO: 2, H-Ac5c-Val-Aib-Glu-Ile-Gln-Leu-Met-His-Gln-Har-Ala-Lys( )Trp-Leu-Asn-Asp( )-NH2] (H-[Ac5c]V[Aib]EIQLMHQ[hArg]AKWLND-NH2; lactam 13-17), the “potency comparison in words” value in series [1] (cAMP) was “EC50 comparable to PTH(1-34); also recorded: significantly more potent than SEQ ID NO: 31, SEQ ID NO: 3 and SEQ ID NO: 42”. Also, in series [1] (cAMP, 100 μM IBMX, 37° C.), a half-maximal effect (EC50) was put at 1 nM. Besides, the “Emax ± SEM [pmol/well]” value in series [1] is listed as 4.9 ± 0.8 pmol/well. For the same molecule, the “potency compared to linear / non-stabilized counterparts, in words” value in series [2] is recorded as “significantly higher potency”; in series [2] (listed as 2), “increased potencies”; in series [2] (listed as SEQ ID NO:2) it was “significantly higher potency”. In series [3], the “CYP2D6 activity (% of vehicle)” value is listed as 67 % of vehicle.
On to `CC[C@H](C)[C@H](NC(=O)[C@H](CCC(=O)O)NC(=O)[C@H](CO)NC(=O)[C@@H](NC(=O)[C@@H](N)CO)C(C)C)C(=O)N[C@@H](CCC(N)=O)C(=O)N[C@@H](CC(C)C)C(=O)N[C@@H](CCSC)C(=O)N[C@@H](Cc1c[nH]cn1)C(=O)N[C@@H](CC(N)=O)C(=O)N[C@@H](CC(C)C)C(=O)NCC(=O)N[C@@H](CCCCN)C(=O)N[C@@H](Cc1c[nH]cn1)C(=O)N[C@@H](CC(C)C)C(=O)N[C@@H](CC(N)=O)C(=O)N[C@@H](CO)C(=O)N[C@@H](CCSC)C(=O)N[C@@H](CCC(=O)O)C(=O)N[C@@H](CCCNC(=N)N)C(=O)N[C@H](C(=O)N[C@@H](CCC(=O)O)C(=O)N[C@@H](Cc1c[nH]c2ccccc12)C(=O)N[C@@H](CC(C)C)C(=O)N[C@@H](CCCNC(=N)N)C(=O)N[C@@H](CCCCN)C(=O)N[C@@H](CCCCN)C(=O)N[C@@H](CC(C)C)C(=O)N[C@@H](CCC(N)=O)C(=O)N[C@@H](CC(=O)O)C(=O)N[C@H](C(=O)N[C@@H](Cc1c[nH]cn1)C(=O)N[C@@H](CC(N)=O)C(=O)N[C@@H](Cc1ccccc1)C(=O)O)C(C)C)C(C)C` [SEQ ID NO: 32, reference compound], for which, in series [1], the “agonism on PTH receptor cAMP signalling” value is reported as “robust cAMP response” and the “Emax ± SEM [pmol/well]” value is listed as 4.4 ± 0.4 pmol/well.

B1: H-Ac5c-Val-Aib-Glu-Ile-Gln-Leu-Met-His-Gln-Har-Ala-Lys-Trp-NH2 (peptide)
chain: H-[Ac5c]V[Aib]EIQLMHQ[hArg]AKW-NH2
SMILES: CC[C@H](C)[C@H](NC(=O)[C@H](CCC(=O)O)NC(=O)C(C)(C)NC(=O)[C@@H](NC(=O)C1(N)CCCC1)C(C)C)C(=O)N[C@@H](CCC(N)=O)C(=O)N[C@@H](CC(C)C)C(=O)N[C@@H](CCSC)C(=O)N[C@@H](Cc1c[nH]cn1)C(=O)N[C@@H](CCC(N)=O)C(=O)N[C@@H](CCCCNC(=N)N)C(=O)N[C@@H](C)C(=O)N[C@@H](CCCCN)C(=O)N[C@@H](Cc1c[nH]c2ccccc12)C(N)=O
As to B1, in series [4], the CYP2D6 activity (% of vehicle), dextrorphan formation rate in human liver microsomes, 10 µM peptide was 22 % of vehicle. For the same molecule, in series [5], the Emax, cAMP efficacy assay in MC3T3-E1 cells is 4.5 pmol/well and the pEC50, cAMP efficacy assay in MC3T3-E1 cells is 8.4 -log(M). In addition, in series [6], the Emax, cAMP efficacy assay in Saos-2 cells (31T, trifluoroacetate salt) (relative to control (SEQ ID NO: 32)) was found to be 1.07 and the pEC50, cAMP efficacy assay in Saos-2 cells (31T, trifluoroacetate salt) was 7.66 -log(M).

B2: H-Ac5c-Val-Aib-Glu-Ile-Gln-Leu-Met-His-Gln-Har-Ala-Lys-Trp-Leu-Asn-Asn-NH2 (peptide)
chain: H-[Ac5c]V[Aib]EIQLMHQ[hArg]AKWLNN-NH2
SMILES: CC[C@H](C)[C@H](NC(=O)[C@H](CCC(=O)O)NC(=O)C(C)(C)NC(=O)[C@@H](NC(=O)C1(N)CCCC1)C(C)C)C(=O)N[C@@H](CCC(N)=O)C(=O)N[C@@H](CC(C)C)C(=O)N[C@@H](CCSC)C(=O)N[C@@H](Cc1c[nH]cn1)C(=O)N[C@@H](CCC(N)=O)C(=O)N[C@@H](CCCCNC(=N)N)C(=O)N[C@@H](C)C(=O)N[C@@H](CCCCN)C(=O)N[C@@H](Cc1c[nH]c2ccccc12)C(=O)N[C@@H](CC(C)C)C(=O)N[C@@H](CC(N)=O)C(=O)N[C@@H](CC(N)=O)C(N)=O
For the molecule B2, the CYP2D6 activity (% of vehicle), dextrorphan formation rate in human liver microsomes, 10 µM peptide in series [4] is 21 % of vehicle. Also, in series [5], the Emax, cAMP efficacy assay in MC3T3-E1 cells turned out to be 5.5 pmol/well; the agonist potency relative to SEQ ID NO: 2, cAMP in MC3T3-E1 cells is 2 to 3 fold weaker; the pEC50, cAMP efficacy assay in MC3T3-E1 cells was 8.6 -log(M). For the same molecule, in series [6], the Emax, cAMP efficacy assay in Saos-2 cells (3T, trifluoroacetate salt) (relative to control (SEQ ID NO: 32)) was 1.06 and the pEC50, cAMP efficacy assay in Saos-2 cells (3T, trifluoroacetate salt) is 8.04 -log(M).

The record behind these values is patent publication US20100048462A1, “TRUNCATED PTH PEPTIDES WITH A CYCLIC CONFORMATION” (Zealand Pharma A/S, priority 2006, published 2010).
